Consider three molecules from patent US20090209453A1 (UNIVERSITY OF MEDICINE AND DENTISTRY OF NEW JERSEY, published 2009).

For test [1], the target named is T1, rat LH receptor (rat, UniProt P16235 27-700).
T1 construct: whole, on cells; CHO cells engineered to (over)express the rat LH receptor; also called rat lutropin receptor
The test is described as follows: 125I-hCG competition on rat LH receptors.

Test [2] addresses T1, rat LH receptor. Put plainly: competition with radioiodinated hCG for rat LH receptors.

T1 sequence (P16235 27-700): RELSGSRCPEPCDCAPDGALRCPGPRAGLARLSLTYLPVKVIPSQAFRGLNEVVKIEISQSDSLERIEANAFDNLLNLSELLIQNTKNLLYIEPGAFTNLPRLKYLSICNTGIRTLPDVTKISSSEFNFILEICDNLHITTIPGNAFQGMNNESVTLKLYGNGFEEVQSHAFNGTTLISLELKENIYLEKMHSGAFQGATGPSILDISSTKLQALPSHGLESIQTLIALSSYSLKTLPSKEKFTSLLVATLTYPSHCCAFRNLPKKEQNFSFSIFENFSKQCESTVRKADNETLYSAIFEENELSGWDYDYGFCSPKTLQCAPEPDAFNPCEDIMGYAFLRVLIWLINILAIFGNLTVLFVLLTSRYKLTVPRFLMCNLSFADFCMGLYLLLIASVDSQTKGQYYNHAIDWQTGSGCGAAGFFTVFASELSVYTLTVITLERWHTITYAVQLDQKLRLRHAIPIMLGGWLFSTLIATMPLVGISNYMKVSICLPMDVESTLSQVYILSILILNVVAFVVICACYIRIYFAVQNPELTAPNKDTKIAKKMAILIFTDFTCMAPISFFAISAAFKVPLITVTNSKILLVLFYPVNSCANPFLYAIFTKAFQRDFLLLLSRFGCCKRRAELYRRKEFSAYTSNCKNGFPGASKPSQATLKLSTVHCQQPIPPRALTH

B1: pMB2472+pMB2672 heterodimer (crosslink α86-β106) (ligand)
alpha: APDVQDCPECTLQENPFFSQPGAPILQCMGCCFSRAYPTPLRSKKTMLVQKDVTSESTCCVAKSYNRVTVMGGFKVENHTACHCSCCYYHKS
beta: SKEPLRPRCRPINATLAVEKEGCPVCITVNTTICAGYCPTMTRVLQGVLPALPQVVCNYRDVRFESIRLPGCPRGVNPVVSYAVALSCQCALCRRSTTDCGGPKDC
modifications: Intersubunit disulfide between alpha Cys86 and beta Cys106 (the beta C-terminus). N-linked glycans remain, except at alpha position 52 (N52D). Beta Cys26 is free.
notes: The text says that pMB1244 or pMB2472 was the α-subunit construct; also called pMB2472 and pMB2672
As for B1, the binding result with rat LH receptor [1] is “binds”.

B2: pRM917+pMB2545 crosslinked heterodimer (ligand)
alpha: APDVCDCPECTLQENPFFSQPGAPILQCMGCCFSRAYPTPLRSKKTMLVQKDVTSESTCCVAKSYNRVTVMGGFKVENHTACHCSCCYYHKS
beta: SRPCCRPINATLAVEKEGCPVAITVNTTICAGYCPTMTRVLQGVLPALPQVVCNYRDVRFESIRLPGCPRGVNPVVSYAVALSCQCALCRRSTTDCGC
modifications: Potential intersubunit disulfides α5-β8 and α86-β102; N-linked glycans on both subunits (none at α52).
notes: Potential disulfides α5-β8 and α86-β102; also called pRM917 and pMB2545; copies: 1 + 1
Take B2: the binding result with rat LH receptor [2] is reported as “binds”.

B3: pMB2472+pMB2673 heterodimer (crosslink α86-β108) (ligand)
alpha: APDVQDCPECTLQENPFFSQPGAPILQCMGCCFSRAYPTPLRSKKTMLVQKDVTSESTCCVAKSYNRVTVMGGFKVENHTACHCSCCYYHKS
beta: SKEPLRPRCRPINATLAVEKEGCPVCITVNTTICAGYCPTMTRVLQGVLPALPQVVCNYRDVRFESIRLPGCPRGVNPVVSYAVALSCQCALCRRSTTDCGGPKDHPC
modifications: Intersubunit disulfide between alpha Cys86 and beta Cys108 (the beta C-terminus). N-linked glycans remain, except at alpha position 52 (N52D). Beta Cys26 is free.
notes: The text says that pMB1244 or pMB2472 was the α-subunit construct; also called pMB2472 and pMB2673
Take B3: in the test with rat LH receptor [1], the binding result is on record as “binds”.
